Experimental data reported in paper PMC8191779, “Hinge like domain motion facilitates human RBMS1 protein binding to proto-oncogene c-myc promoter”.

Tests used:
[1] = molecular target: T1, RBMS1 (58-224) (Homo sapiens) (UniProt P29558); assay: ITC; settings: ITC: 20 mM sodium phosphate pH 7.1, 50 mM NaCl, 303 K, 0.1 mM protein in cell, 1-1.5 mM DNA in syringe; NMR: 20 mM sodium phosphate pH 7.1, 100 mM NaCl, 5% D2O
T1 sequence: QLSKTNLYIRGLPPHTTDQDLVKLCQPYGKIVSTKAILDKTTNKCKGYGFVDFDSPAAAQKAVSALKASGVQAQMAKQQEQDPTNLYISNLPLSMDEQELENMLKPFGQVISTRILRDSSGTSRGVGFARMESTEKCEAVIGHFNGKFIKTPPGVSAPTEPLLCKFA

[2] = molecular target: T2, RBMS1 (58-224) (Homo sapiens, UniProt P29558 62-223); assay: ITC; 20 mM sodium phosphate pH 7.1, 50 mM NaCl, 303 K (30 C); 0.1 mM protein in cell, 1-1.5 mM DNA in syringe; settings: protein: recombinant; tags: N-term GAMG left after TEV cleavage of 6xHis
T2 sequence: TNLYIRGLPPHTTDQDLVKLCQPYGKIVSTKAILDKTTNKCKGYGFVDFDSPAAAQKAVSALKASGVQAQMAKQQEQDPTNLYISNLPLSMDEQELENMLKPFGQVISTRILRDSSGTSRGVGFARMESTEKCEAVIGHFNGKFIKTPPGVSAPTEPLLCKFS

[3] = molecular target: T3, RBMS1 RRM1 (Homo sapiens, UniProt P29558 58-137); assay: ITC; ITC: 20 mM sodium phosphate pH 7.1, 50 mM NaCl, 303 K, 0.1 mM protein in cell, 1-1.5 mM DNA in syringe; NMR: 20 mM sodium phosphate pH 7.1, 100 mM NaCl, 5% D2O; settings: protein: recombinant; tags: 6xHis removed by TEV; single strand
T3 sequence: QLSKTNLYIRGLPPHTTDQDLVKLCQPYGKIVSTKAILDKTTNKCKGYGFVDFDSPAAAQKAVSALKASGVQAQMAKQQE

[4] = molecular target: T4, RBMS1 (58-224) Q138E (Homo sapiens, UniProt P29558 62-223, Q138E); assay: ITC; 20 mM sodium phosphate pH 7.1, 50 mM NaCl, 303 K (30 C); 0.1 mM protein in cell, 1-1.5 mM DNA in syringe; settings: protein: recombinant; tags: N-term GAMG left after TEV cleavage of 6xHis
T4 sequence: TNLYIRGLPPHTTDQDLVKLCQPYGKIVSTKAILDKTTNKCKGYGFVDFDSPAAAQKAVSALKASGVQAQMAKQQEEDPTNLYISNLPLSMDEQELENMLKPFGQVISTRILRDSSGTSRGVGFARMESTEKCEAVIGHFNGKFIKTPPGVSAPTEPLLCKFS

[5] = molecular target: T5, RBMS1 (58-224) F185V (Homo sapiens, UniProt P29558 62-223, F185V); assay: as above; settings: protein: recombinant; tags: N-term GAMG left after TEV cleavage of 6xHis
T5 sequence: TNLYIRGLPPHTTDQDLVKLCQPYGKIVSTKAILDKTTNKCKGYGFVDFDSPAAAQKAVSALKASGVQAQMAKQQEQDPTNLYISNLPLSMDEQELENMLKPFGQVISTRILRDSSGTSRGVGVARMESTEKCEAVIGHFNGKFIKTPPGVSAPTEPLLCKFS

[6] = molecular target: T6, RBMS1 (58-224) F107L (Homo sapiens, UniProt P29558 62-223, F107L); assay: as above; settings: protein: recombinant; tags: N-term GAMG left after TEV cleavage of 6xHis
T6 sequence: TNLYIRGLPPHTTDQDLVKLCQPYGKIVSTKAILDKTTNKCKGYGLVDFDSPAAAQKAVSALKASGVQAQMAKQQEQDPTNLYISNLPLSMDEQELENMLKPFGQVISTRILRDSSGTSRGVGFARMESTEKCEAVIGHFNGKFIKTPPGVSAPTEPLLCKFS

[7] = molecular target: T7, RBMS1 (58-224) Y105S (Homo sapiens, UniProt P29558 62-223, Y105S); assay: as above; settings: protein: recombinant; tags: N-term GAMG left after TEV cleavage of 6xHis
T7 sequence: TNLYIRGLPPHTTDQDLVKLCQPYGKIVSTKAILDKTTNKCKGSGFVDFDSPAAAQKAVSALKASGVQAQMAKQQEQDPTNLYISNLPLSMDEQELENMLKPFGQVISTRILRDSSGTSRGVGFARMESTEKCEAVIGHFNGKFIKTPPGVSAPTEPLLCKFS

[8] = molecular target: T8, RBMS1 RRM2 (Homo sapiens, UniProt P29558 138-224); assay: ITC; ITC: 20 mM sodium phosphate pH 7.1, 50 mM NaCl, 303 K, 0.1 mM protein in cell, 1-1.5 mM DNA in syringe; NMR: 20 mM sodium phosphate pH 7.1, 100 mM NaCl, 5% D2O; settings: protein: recombinant; tags: 6xHis removed by TEV; single strand
T8 sequence: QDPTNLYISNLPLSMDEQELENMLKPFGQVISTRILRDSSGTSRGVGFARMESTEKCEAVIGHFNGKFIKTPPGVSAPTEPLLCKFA

[9] = molecular target: T9, RBMS1 (58-224) (Homo sapiens, UniProt P29558 58-224); assay: as above; settings: protein: recombinant; tags: N-term GAMG left after TEV cleavage of 6xHis; single strand
T9 sequence: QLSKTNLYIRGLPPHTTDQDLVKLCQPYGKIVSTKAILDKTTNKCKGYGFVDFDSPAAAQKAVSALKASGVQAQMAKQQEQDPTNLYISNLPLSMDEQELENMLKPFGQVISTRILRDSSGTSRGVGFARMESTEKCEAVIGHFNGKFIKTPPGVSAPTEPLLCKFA

[10] = molecular target: T3, RBMS1 RRM1; assay: as above; settings: protein: recombinant; tags: 6xHis removed by TEV; single strand; remark: listed apart in the source
[11] = molecular target: T10, RBMS1 linker mutant Q135E/Q138E (Homo sapiens, UniProt P29558 58-224, Q135E); assay: as above; settings: protein: recombinant; tags: 6xHis removed by TEV; single strand
T10 sequence: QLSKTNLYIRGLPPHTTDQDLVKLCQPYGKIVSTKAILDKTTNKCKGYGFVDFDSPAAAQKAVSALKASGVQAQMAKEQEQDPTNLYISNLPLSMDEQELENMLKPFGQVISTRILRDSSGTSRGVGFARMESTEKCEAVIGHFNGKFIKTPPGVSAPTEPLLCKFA

Molecule: c-myc 21 bp promoter sequence
- Kd [1]: 2.6 µM

Molecule: TTTTT (ssDNA)
- Kd [2]: 79.4 µM

Molecule: TCGTATT (ssDNA)
- Kd [2]: 7.7 µM

Molecule: TGGTCAT (ssDNA)
- Kd [2]: 17.5 µM

Molecule: GGTAAT (ssDNA)
- Kd [2]: 14.9 µM

Molecule: TGGTAAT (ssDNA)
- Kd [2]: 9.6 µM

Molecule: TGGTATT (ssDNA)
- binding signal [3]: 10 fold lower affinity than RBMS1 58-224
- Kd [4]: 17.6 µM
- Kd [2]: 6.7 µM
- Kd [5]: 23.2 µM
- Kd [6]: 182 µM
- Kd [7]: 151 µM
- binding result [8]: no binding

Molecule: TGGTATC (ssDNA)
- Kd [2]: 6.2 µM

Molecule: TCGGATG (ssDNA)
- Kd [2]: 35.5 µM

Molecule: TGGGATT (ssDNA)
- Kd [2]: 36.4 µM

Molecule: TCTTATT (ssDNA)
- Kd [4]: 13.9 µM
- Kd [2]: 3.84 µM
- Kd [5]: 6.02 µM
- Kd [6]: 142 µM
- binding result [7]: no binding

Molecule: GTAT (ssDNA)
- binding result [2]: no binding

Molecule: TCTTATT (ssDNA) [c-myc consensus TCTTATT]
- Kd [9]: 3.84 µM
- Kd [10]: 55.2 µM
- binding signal [11]: 10 fold lower binding than wild type

Molecule: TATAATT (ssDNA)
- Kd [2]: 37 µM

Molecule: TCATATT (ssDNA)
- Kd [2]: 11.9 µM

Molecule: TGTTATT (ssDNA)
- Kd [2]: 15.2 µM

Molecule: CTTTA (ssDNA)
- Kd [2]: 55.5 µM

Molecule: TGGAATT (ssDNA)
- Kd [2]: 21 µM

Molecule: TTAT (ssDNA)
- binding result [2]: no binding

Molecule: GTTAT (ssDNA)
- Kd [2]: 81.3 µM

Molecule: TGGTACT (ssDNA)
- Kd [2]: 15.9 µM

Molecule: TCCCATT (ssDNA)
- Kd [2]: 8.2 µM

Molecule: ATAT (ssDNA)
- binding result [2]: no binding

Molecule: TGCTATT (ssDNA)
- Kd [2]: 8.69 µM

Molecule: TGGTGTT (ssDNA)
- Kd [2]: 16.1 µM

Molecule: TGTTATT (ssDNA) [TGTTATT (C2G)]
- Kd [9]: 15.2 µM

Molecule: TGGTTTT (ssDNA)
- Kd [4]: 18.1 µM
- Kd [2]: 4.04 µM
- Kd [5]: 22 µM
- Kd [6]: 83.3 µM
- Kd [7]: 418 µM
- binding result [8]: no binding

Molecule: TCTTATG (ssDNA)
- Kd [2]: 19.3 µM
